Laboratory results published in the RNAGym collection of RNA variant scans (doi:10.7554/elife.90254).

B1: OR4K15 (parent)
chain: GUUAACGGUCAUAGGCCAUGGAAACUAGGAGCACCAUUUCGCUGCCAGUGAAGAAAUGAACAAAGAAAAUCUGGGCCAGGCAGGCAUCAAAAGAAAUAGUCUUGCGCUCAACCAGAAAGUCUGUAAUCAUUUUAAGGGUA

Variants of: B1
Assay: self-cleavage, relative activity (ratio to wild type); higher = more cleavage; in vitro, sequencing; the parent is a self-cleaving ribozyme
For GUUAACGGUCAUAGGCCAUGGAUACUAGGAGCACCAUUUCGCUGCCAGUGAAGAAAUGAACAAAGAAAACCUGGGCCAGGCAGGCAUCAAAAGAAAUAGUCUUGCGCUCAACCAGAAAGUCUGUAAUCAUUUUAAGGGUA, the self-cleavage was 0.83. GUUAACGGUCAUAGGCCAUGGAACCUAGGAGCACCAUUUCGCUGCCAGUGAAGAAAUGAACAAAGAAAAUCUGGGCCAGGCAGGCAUCAAAAGAAAUAGUCUUGCGCUCAACCAGAAAGUCUGUGAUCAUUUUAAGGGUA showed a self-cleavage of 0.43. In the case of GUUAACGGUCAUAGGCCAUGGAACCUAGGAGCACCAUUUCGCUGCCUGUGAAGAAAUGAACAAAGAAAAUCUGGGCCAGGCAGGCAUCAAAAGAAAUAGUCUUGCGCUCAACCAGAAAGUCUGUAAUCAUUUUAAGGGUA, the self-cleavage is reported as 0.89. GUUAACGGUCAUAGGCCAUGGAACCUAGGAGCACCAUUUCGCUGCCAGUGAAGAAAUGAACAAAGAAAAUCUGGGCCAGGCAGGCAUCAAAAGAAAUAGUCUUACGCUCAACCAGAAAGUCUGUAAUCAUUUUAAGGGUA showed a self-cleavage of 0.01. GUUAACGGUCAUAGGCCAUGGAUACUAGGAGUACCAUUUCGCUGCCAGUGAAGAAAUGAACAAAGAAAAUCUGGGCCAGGCAGGCAUCAAAAGAAAUAGUCUUGCGCUCAACCAGAAAGUCUGUAAUCAUUUUAAGGGUA gave a self-cleavage of 2.28. Variant GUUAACGGUCAUAGGCCAUGGAACCUAGGAGCACCAUUUCGCUGCCAGUGAAGGAAUGAACAAAGAAAAUCUGGGCCAGGCAGGCAUCAAAAGAAAUAGUCUUGCGCUCAACCAGAAAGUCUGUAAUCAUUUUAAGGGUA has a self-cleavage of 1.21. For GUUAACGGUCAUAGGCCAUGGAUACUAGGAGCACCAUUUCGCUGCCAGUGAAGAAAUGAACAAAGAAAAUCUGGGCCAGGCAGGCAUCAAAAGAGAUAGUCUUGCGCUCAACCAGAAAGUCUGUAAUCAUUUUAAGGGUA, the self-cleavage was 1.75. GUUAACGGUCAUAGGCCAUGGAACCUAGGAGCACCAUUUCGCUGCCAGUGAAGAAAUGAACAAAGGAAAUCUGGGCCAGGCAGGCAUCAAAAGAAAUAGUCUUGCGCUCAACCAGAAAGUCUGUAAUCAUUUUAAGGGUA showed a self-cleavage of 1.16. With GUUAACGGUCAUAGGCCAUGGAUACUAGGAGCACCAUUUCGCUGCCAGUGAAGAAAUGAACAAAGAAAAUCUGGGCCAGGCAGGCAUCAAAAGAAAUAGUCUUGCGCUCAACCAGAAAGUCUGUAGUCAUUUUAAGGGUA the self-cleavage was 0.96. For GUUAACGGUCAUAGGCCAUGGAACCUAGGAGCACCAUUUCGCUGCCAGUGGAGAAAUGAACAAAGAAAAUCUGGGCCAGGCAGGCAUCAAAAGAAAUAGUCUUGCGCUCAACCAGAAAGUCUGUAAUCAUUUUAAGGGUA, the self-cleavage was 1.23. GUUAACGGUCAUAGGCCAUGGAACCUAGGAGCACCAUCUCGCUGCCAGUGAAGAAAUGAACAAAGAAAAUCUGGGCCAGGCAGGCAUCAAAAGAAAUAGUCUUGCGCUCAACCAGAAAGUCUGUAAUCAUUUUAAGGGUA gave a self-cleavage of 1.26. Work on GUUAACGGUCAUAGGCCAUGGAACCUAGGAGCACCAUUUCGCUGCCAGUGAAGAAAUGAACAAAGAAAAUCUGGGCCAGGCAGGCAUCGAAAGAAAUAGUCUUGCGCUCAACCAGAAAGUCUGUAAUCAUUUUAAGGGUA yielded a self-cleavage of 1.68. In the case of GUUAACGGUCAUAGGCCAUGGAUACUAGGAGCACCAUUUCGCUGCCAGUGAAGAAAUGAACAAAGAAAAUCUGGGCCAGGCAGGCAUCAAAAGGAAUAGUCUUGCGCUCAACCAGAAAGUCUGUAAUCAUUUUAAGGGUA, the self-cleavage is reported as 1.18. Work on GUUAACGGUCAUAGGCCAUGGAUACUAGGAGCACCAUUUCGCUGCCAGUGAAGAAAUGAACAAAGAAAAUCUGGGCCAGGCAGGCAUCAAAAGUAAUAGUCUUGCGCUCAACCAGAAAGUCUGUAAUCAUUUUAAGGGUA yielded a self-cleavage of 0.3. Variant GUUAACGGUCAUAGGCCAUGGAUACUAGGAGCACCAUUUCGCAGCCAGUGAAGAAAUGAACAAAGAAAAUCUGGGCCAGGCAGGCAUCAAAAGAAAUAGUCUUGCGCUCAACCAGAAAGUCUGUAAUCAUUUUAAGGGUA has a self-cleavage of 1.44. Variant GUUAACGGUCAUAGGCCAUGGAACCUAGGAGCACCAUUUCGCUGCCAGUGAAGAAAUGAACAAAGAAAAUCUGGGCCGGGCAGGCAUCAAAAGAAAUAGUCUUGCGCUCAACCAGAAAGUCUGUAAUCAUUUUAAGGGUA has a self-cleavage of 0.32. GUUAACGGUCAUAGGCCAUGGAACCUAGGAGCACCAUUUCGCUGCCAGUGAAGAAAUGAACAAAGAAAAUCUGGGCCCGGCAGGCAUCAAAAGAAAUAGUCUUGCGCUCAACCAGAAAGUCUGUAAUCAUUUUAAGGGUA gave a self-cleavage of 0.36. Work on GUUAACGGUCAUAGGCCAUGGAUACUAGGAGCACCAUUUCGCUGCCAGUGAAGAAAUGAACAAAGAAAAUCUGGGCCAGGCAGGCAUCAAAAGAAAUAGUCUUGCGCUCAACCAGAUAGUCUGUAAUCAUUUUAAGGGUA yielded a self-cleavage of 0.6. With GUUAACGGUCAUAGGCCAUGGAACCUAGGAGCACCAUUUCGCUGCCAGUGAAGAAAUGAACAAAGAAAAUCUGGGCCAGGCAGGCAUCAAAGGAAAUAGUCUUGCGCUCAACCAGAAAGUCUGUAAUCAUUUUAAGGGUA the self-cleavage was 1.9. GUUAACGGUCAUAGGCCAUGGAACCUAGGAGCACCAUUUCGCUGCCAGUGAAGAAAUGAGCAAAGAAAAUCUGGGCCAGGCAGGCAUCAAAAGAAAUAGUCUUGCGCUCAACCAGAAAGUCUGUAAUCAUUUUAAGGGUA showed a self-cleavage of 1.17. In the case of GUUAACGGUCAUAGGCCAUGGAUACUAGGAGCACCAUUUCGCUGCCAGUGAAGAAAUGAACAAAGAAAAUCUGGGCCAGGCAGGCAUCAAAAGAAAUAGUCUUGCGCUCAACCAGAAAGUCUAUAAUCAUUUUAAGGGUA, the self-cleavage is reported as 1.5. With GUUAACGGUCAUAGGCCAUGGAACCUAGGAGCACCAUUUCGCUGCCAGUGAAGAAAUGAACAAAGAAAAUCUGGGCCAGGCGGGCAUCAAAAGAAAUAGUCUUGCGCUCAACCAGAAAGUCUGUAAUCAUUUUAAGGGUA the self-cleavage was 0.62. Variant GUUAACGGUCAUAGGCCAUGGAUACUAGGAGCACCAUUUCGCUGCCAGUGAAGAAAUGAACAAAGAAAAUCUGGGCCAAGCAGGCAUCAAAAGAAAUAGUCUUGCGCUCAACCAGAAAGUCUGUAAUCAUUUUAAGGGUA has a self-cleavage of 0.16. Variant GUUAACGGUCAUAGGCCAUGGAACCCAGGAGCACCAUUUCGCUGCCAGUGAAGAAAUGAACAAAGAAAAUCUGGGCCAGGCAGGCAUCAAAAGAAAUAGUCUUGCGCUCAACCAGAAAGUCUGUAAUCAUUUUAAGGGUA has a self-cleavage of 1.52. GUUAACGGUCAUAGGCCAUGGAACCUAGGAGCACCAUUUCGCUGCCAGUGAAGAAAUGAACAAAGAAAAUCUGGGCCAGGCAGGCAUCAAAAGAAAUAGUCUUGCGCUCAACCAGAAGGUCUGUAAUCAUUUUAAGGGUA showed a self-cleavage of 0.96. GUUAACGGUCAUAGGCCAUGGAACCUAGGAGCACCAUUUCGCUGCCAGUGAAGAAAUGAACAAAGAAAAUCUGGGCCAGGCAGGCAUCAAAAGGAAUAGUCUUGCGCUCAACCAGAAAGUCUGUAAUCAUUUUAAGGGUA showed a self-cleavage of 1.63. In the case of GUUAACGGUCAUAGGCCAUGGAACCUAGGAGCACCAUUUCGCUGCCAGUGAAGAAAUGAACAAAGAAAAUCUGGGCCAGACAGGCAUCAAAAGAAAUAGUCUUGCGCUCAACCAGAAAGUCUGUAAUCAUUUUAAGGGUA, the self-cleavage is reported as 0.19. With GUUAACGGUCAUAGGCCAUGGAACCUAGGGGCACCAUUUCGCUGCCAGUGAAGAAAUGAACAAAGAAAAUCUGGGCCAGGCAGGCAUCAAAAGAAAUAGUCUUGCGCUCAACCAGAAAGUCUGUAAUCAUUUUAAGGGUA the self-cleavage was 1.02. GUUAACGGUCAUAGGCCAUGGAUACUAGGAGCACCAUUUCGCUGCCAGUGAAGAAAUGAACAAAGAAAAUCUGGGCCAGGCAGGCAUCAAAAGAAAUAGUCUUGCGCUCUACCAGAAAGUCUGUAAUCAUUUUAAGGGUA gave a self-cleavage of 0.93. For GUUAACGGUCAUAGGCCAUGGAUACUAGGAGCACCAUCUCGCUGCCAGUGAAGAAAUGAACAAAGAAAAUCUGGGCCAGGCAGGCAUCAAAAGAAAUAGUCUUGCGCUCAACCAGAAAGUCUGUAAUCAUUUUAAGGGUA, the self-cleavage was 0.48. For GUUAACGGUCAUAGGCCAUGGAACCUAGGAGCACCAUUUCGCUGCCAGUGAAGAAAUGGACAAAGAAAAUCUGGGCCAGGCAGGCAUCAAAAGAAAUAGUCUUGCGCUCAACCAGAAAGUCUGUAAUCAUUUUAAGGGUA, the self-cleavage was 1.51. In the case of GUUAACGGUCAUAGGCCAUGGAACCUAGGAGCACCAUUUCGCAGCCAGUGAAGAAAUGAACAAAGAAAAUCUGGGCCAGGCAGGCAUCAAAAGAAAUAGUCUUGCGCUCAACCAGAAAGUCUGUAAUCAUUUUAAGGGUA, the self-cleavage is reported as 0.67. Variant GUUAACGGUCAUAGGCCAUGGAACCUAGGAGCACCAUUUCGCUGCCAGUGAAGAAAUGAACAAAGAAAAUCUGGGCCAGGCAGGCAUCAAAAGAAAUAGUCUUGCGCUCAACCAGAAAGUCUGUAGUCAUUUUAAGGGUA has a self-cleavage of 0. In the case of GUUAACGGUCAUAGGCCAUGGAACCUAGGAGCACCAUUUCGCUGCCAGUGAAGAAAUGAACAAAGAAGAUCUGGGCCAGGCAGGCAUCAAAAGAAAUAGUCUUGCGCUCAACCAGAAAGUCUGUAAUCAUUUUAAGGGUA, the self-cleavage is reported as 1.52. With GUUAACGGUCAUAGGCCAUGGAUACUAGGAGCACCAUUUCGCUGCCAGUGAAGAAAUGAACAAAGAAAAUCUGGGCCAGGCAGGCAUCAAAAGAAAUAGUCUUGCGCUCAACCAGAAAGUCCGUAAUCAUUUUAAGGGUA the self-cleavage was 1. Work on GUUAACGGUCAUAGGCCAUGGAACCUAGGAGCACCAUUUCGCUGCCAGUGAAGAAAUGAACAAAGAAAAUCUGGGCCAGGCAGGCAUCAAAAGAAAUAGUCUUGCGCUCAACCAGAAAGUCUGUAAUCAUUUUAAGGGUA yielded a self-cleavage of 1.29. GUUAACGGUCAUAGGCCAUGGAUACUAGGAGCACCAUUUCGCUGCCAGUGAAGAAAUGAACAAAGAAAAUCUGGGCCAGGCAGGCAUCAAAAGAAAUAGUCCUGCGCUCAACCAGAAAGUCUGUAAUCAUUUUAAGGGUA showed a self-cleavage of 1.7. Work on GUUAACGGUCAUAGGCCAUGGAACCUAGGAGCACCAUUUCGCUGCCAGUGAGGAAAUGAACAAAGAAAAUCUGGGCCAGGCAGGCAUCAAAAGAAAUAGUCUUGCGCUCAACCAGAAAGUCUGUAAUCAUUUUAAGGGUA yielded a self-cleavage of 1.55. Variant GUUAACGGUCAUAGGCCAUGGAUACUAGGAGCACCACUUCGCUGCCAGUGAAGAAAUGAACAAAGAAAAUCUGGGCCAGGCAGGCAUCAAAAGAAAUAGUCUUGCGCUCAACCAGAAAGUCUGUAAUCAUUUUAAGGGUA has a self-cleavage of 1.41. Variant GUUAACGGUCAUAGGCCAUGGAUACUAGGAGCACCAUUUCGCUGCCAGUGAAGAAAUGAACAAAGAAAAUCUGGGCCAGGCAGGCAUCAAAAGAAAUAGUCUUGCGCUCAACCAGAAAGUCUGUAAUCAUUCUAAGGGUA has a self-cleavage of 1.03. In the case of GUUAACGGUCAUAGGCCAUGGAACCUAGGAGCACCAUUUCGCUGCCAGUGAAGAAAUGAACGAAGAAAAUCUGGGCCAGGCAGGCAUCAAAAGAAAUAGUCUUGCGCUCAACCAGAAAGUCUGUAAUCAUUUUAAGGGUA, the self-cleavage is reported as 1.2.
